According to article PMC4838387, “PolDIP2 interacts with human PrimPol and enhances its DNA polymerase activities”:

Molecular target: T1, PrimPol24-354 (AEP catalytic domain);PolDIP2 (untagged) (human;human?, UniProt Q96LW4;Q9Y2S7 24-354;1-368, |)
T1 sequence 1: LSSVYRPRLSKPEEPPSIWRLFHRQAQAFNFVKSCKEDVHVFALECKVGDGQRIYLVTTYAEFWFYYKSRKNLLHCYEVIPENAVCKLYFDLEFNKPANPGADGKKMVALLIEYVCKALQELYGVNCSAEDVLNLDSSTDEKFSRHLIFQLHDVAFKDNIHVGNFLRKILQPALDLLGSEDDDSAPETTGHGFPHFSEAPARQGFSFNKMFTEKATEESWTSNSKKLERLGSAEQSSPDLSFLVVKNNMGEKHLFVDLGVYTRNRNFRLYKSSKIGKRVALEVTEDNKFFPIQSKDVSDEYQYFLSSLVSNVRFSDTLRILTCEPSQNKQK
T1 sequence 2: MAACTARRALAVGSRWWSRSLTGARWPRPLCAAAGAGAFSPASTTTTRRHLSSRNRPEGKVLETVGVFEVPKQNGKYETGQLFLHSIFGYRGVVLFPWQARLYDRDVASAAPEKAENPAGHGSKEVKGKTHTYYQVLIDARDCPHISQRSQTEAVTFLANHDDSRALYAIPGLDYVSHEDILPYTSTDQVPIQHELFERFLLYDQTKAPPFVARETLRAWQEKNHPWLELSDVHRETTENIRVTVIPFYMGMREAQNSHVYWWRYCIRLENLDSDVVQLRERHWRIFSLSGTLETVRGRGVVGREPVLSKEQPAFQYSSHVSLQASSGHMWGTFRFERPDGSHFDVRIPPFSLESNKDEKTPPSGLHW
Experiment: EMSA; PolDIP2 50-250 nM with PrimPol; more DNA bound than by PrimPol alone, super-shifted complex; 10 mM Mg2+; EMSA: 10 mM Bis-Tris-propane-HCl pH 7.0, 10 mM MgCl2, 100 uM DTT, 20 nM DNA; 5% native PAGE, 0.5x TBE; binding temperature not stated
Conditions: protein: recombinant;recombinant; tags: ;none (GST cleaved with PreScission protease); copies: 1;1; label: 5'-HEX on primer; 3'-biotin on template; 20 bp duplex; template 5' overhang 77 nt

B1: 20/97-mer primer/template (HP-20 / ND-97) (mixed)
DNA 1: TGTCGTCTGTTCGGTCGTTC
DNA 2: ACCGCGAACTTGAATTCTAGTTCAGTCTAAATGCTCTCAAGCACTGAGCAATTCACAACATATGGCTTTCGATTACCGAACGACCGAACAGACGACA
binding result: binds
